The assay addresses FLAG-HA-HA (F2H)-tagged tbRAP1 at its endogenous locus (Trypanosoma brucei (endogenous locus in T. brucei cells)). As to the kind of experiment: co-IP.

endogenous tbTRF (natural protein) gave a percent co-immunoprecipitated of 10%.

For the origin of these results see PMC2673096.
